Among the data in publication PMC12319226 (Frontiers in Bioinformatics, 2025) are Kd, koff and kon values, retold here.

Experiment in all cases: BLI
On the technique in general: Biolayer interferometry detects binding as a change in optical thickness at a sensor tip.

Experiment [1] concerns the target chimeric antibody hJAR5 (mouse variable, human constant).
Experiment [2] concerns the target mAb JAR5 (mouse) (mouse).
In experiment [3] the target is T1, fHbp m000019 (Neisseria meningitidis, fHbp v1.1 …, point mutant).
T1 construct: also called Round 1 best mutant
T1 chain: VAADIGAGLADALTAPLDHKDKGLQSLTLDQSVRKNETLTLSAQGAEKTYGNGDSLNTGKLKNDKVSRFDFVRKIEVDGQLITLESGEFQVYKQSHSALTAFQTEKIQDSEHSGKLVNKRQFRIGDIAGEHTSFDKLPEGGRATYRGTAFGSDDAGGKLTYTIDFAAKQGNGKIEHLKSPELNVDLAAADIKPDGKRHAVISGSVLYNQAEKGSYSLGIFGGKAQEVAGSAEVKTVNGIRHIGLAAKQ
The following applies: both partners purified.

Experiment [4] deals with T2, fHbp mutant 0014 (Neisseria meningitidis, fHbp v1.1 mutant, point mutant).
T2 chain: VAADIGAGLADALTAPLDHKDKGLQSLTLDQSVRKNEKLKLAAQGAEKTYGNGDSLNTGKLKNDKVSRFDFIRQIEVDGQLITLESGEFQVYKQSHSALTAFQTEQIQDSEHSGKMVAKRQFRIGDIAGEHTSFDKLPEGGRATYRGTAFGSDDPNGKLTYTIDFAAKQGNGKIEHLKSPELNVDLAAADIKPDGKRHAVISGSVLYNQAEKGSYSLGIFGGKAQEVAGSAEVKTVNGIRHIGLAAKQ
The following applies: both partners purified.

For experiment [5], the target named is T3, fHbp mutant 0012 (Neisseria meningitidis, fHbp v1.1 mutant, point mutant).
T3 chain: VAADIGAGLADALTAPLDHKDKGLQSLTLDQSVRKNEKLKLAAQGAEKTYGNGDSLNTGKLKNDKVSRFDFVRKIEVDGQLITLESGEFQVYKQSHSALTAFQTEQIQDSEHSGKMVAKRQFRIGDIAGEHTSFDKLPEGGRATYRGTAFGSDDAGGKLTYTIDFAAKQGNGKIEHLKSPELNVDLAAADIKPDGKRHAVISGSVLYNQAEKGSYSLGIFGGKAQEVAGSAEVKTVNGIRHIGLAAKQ
The following applies: both partners purified.

For experiment [6], the target named is T4, fHbp mutant 0017 (Neisseria meningitidis, fHbp v1.1 mutant, point mutant).
T4 chain: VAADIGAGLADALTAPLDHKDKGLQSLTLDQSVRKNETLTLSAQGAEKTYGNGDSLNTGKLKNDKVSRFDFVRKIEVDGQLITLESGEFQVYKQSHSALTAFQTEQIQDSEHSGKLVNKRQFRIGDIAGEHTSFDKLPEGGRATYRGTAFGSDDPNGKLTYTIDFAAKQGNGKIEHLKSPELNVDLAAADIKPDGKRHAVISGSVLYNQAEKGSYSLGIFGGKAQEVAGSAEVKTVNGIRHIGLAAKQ
The following applies: both partners purified.

Experiment [7] deals with T5, fHbp mutant 0018 (Neisseria meningitidis, fHbp v1.1 mutant, point mutant).
T5 chain: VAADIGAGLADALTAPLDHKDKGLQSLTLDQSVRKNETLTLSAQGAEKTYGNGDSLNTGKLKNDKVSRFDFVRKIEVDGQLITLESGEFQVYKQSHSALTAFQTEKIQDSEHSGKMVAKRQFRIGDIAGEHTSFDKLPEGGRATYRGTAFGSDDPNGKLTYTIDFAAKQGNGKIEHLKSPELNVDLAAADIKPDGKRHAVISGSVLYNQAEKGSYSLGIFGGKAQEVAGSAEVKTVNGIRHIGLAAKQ
The following applies: both partners purified.

For experiment [8], the target named is T6, fHbp m000019 (Neisseria meningitidis, fHbp v1.1 …, point mutant).
T6 chain: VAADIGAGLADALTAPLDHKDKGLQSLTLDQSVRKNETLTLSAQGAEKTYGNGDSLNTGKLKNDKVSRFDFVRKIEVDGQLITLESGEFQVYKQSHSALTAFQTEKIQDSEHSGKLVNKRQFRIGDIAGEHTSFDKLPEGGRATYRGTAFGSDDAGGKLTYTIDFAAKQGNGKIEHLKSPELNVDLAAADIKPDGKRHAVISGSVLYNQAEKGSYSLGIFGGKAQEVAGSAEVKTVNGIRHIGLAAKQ
The following applies: both partners purified.

Experiment [9] addresses T7, fHbp mutant 0015 (Neisseria meningitidis, fHbp v1.1 mutant, point mutant).
T7 chain: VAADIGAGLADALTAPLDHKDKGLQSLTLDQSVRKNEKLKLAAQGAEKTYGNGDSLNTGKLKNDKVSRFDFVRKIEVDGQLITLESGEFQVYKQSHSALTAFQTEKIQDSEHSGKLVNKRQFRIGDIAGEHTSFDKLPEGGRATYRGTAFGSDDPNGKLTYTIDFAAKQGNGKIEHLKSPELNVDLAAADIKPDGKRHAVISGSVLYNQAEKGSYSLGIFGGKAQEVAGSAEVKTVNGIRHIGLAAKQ
The following applies: both partners purified.

Experiment [10] addresses T8, fHbp mutant 0016 (Neisseria meningitidis, fHbp v1.1 mutant, point mutant).
T8 chain: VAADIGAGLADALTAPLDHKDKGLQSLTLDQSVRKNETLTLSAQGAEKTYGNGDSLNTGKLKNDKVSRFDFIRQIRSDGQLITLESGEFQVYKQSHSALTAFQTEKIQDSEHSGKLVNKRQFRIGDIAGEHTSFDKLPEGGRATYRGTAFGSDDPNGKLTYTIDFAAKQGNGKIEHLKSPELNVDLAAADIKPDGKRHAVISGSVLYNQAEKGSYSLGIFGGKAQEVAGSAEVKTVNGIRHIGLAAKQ
The following applies: both partners purified.

The target in experiment [11] is T9, factor H binding protein variant 1.1 (Neisseria meningitidis serogroup B …, UniProt Q9JXV4).
T9 construct: also called fHbp v1.1; v1.1 Control (0001)
The following applies: both partners purified.

Experiment [12] has as its target T10, fHbp m002416 (Neisseria meningitidis, fHbp v3.28/v1.1 …, point mutant).
T10 construct: also called fHbp 2,416; Round 2 best mutant
T10 chain: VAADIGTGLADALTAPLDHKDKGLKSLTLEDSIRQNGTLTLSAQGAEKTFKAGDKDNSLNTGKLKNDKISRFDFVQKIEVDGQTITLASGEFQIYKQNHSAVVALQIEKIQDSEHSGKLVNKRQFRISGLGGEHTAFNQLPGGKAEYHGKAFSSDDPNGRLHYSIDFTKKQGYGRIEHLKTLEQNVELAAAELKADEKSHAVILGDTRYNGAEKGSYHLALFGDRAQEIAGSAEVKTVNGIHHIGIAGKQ
The following applies: both partners purified.

Experiment [13] deals with T11, factor H binding protein variant 3.28 (Neisseria meningitidis, fHbp variant …).
T11 construct: also called fHbp v3.28; v3.28 Control (0002)
T11 chain: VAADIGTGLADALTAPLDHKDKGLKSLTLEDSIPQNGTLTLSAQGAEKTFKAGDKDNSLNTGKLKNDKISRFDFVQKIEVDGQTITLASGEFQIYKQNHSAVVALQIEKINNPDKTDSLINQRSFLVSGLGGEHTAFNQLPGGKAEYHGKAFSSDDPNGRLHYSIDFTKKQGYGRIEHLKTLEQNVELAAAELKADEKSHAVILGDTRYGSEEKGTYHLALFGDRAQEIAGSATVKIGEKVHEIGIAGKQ
The following applies: both partners purified.

The target of experiment [14] is T11, factor H binding protein variant 3.28. The following applies: both partners purified.

What is called Kd is the equilibrium constant for the complex coming apart. One may read the koff as the first-order rate constant of dissociation. Broadly, the kon is the second-order rate constant of association. High values mean fast association, low ones slow association. In experiment [1], fHbp CC1 (natural protein) showed a Kd of 3.86 nM, a koff of 0.00268 s⁻¹ and an association rate constant (kon) of 693000 M⁻¹ s⁻¹.

In experiment [1], fHbp CC4 (natural protein) showed a Kd of 6.92 nM, a koff of 0.00561 s⁻¹ and a kon of 811000 M⁻¹ s⁻¹.

Regarding “fHbp m000006 (from UniProt E6MV22 20-274) (natural protein)”, in [1], the Kd came to 0.922 nM, the koff was determined as 0.000499 s⁻¹ and the kon was 541000 M⁻¹ s⁻¹. In experiment [2], this molecule returned a Kd of under 0.001 nM, a koff of under 1e-07 s⁻¹ and an association rate constant (kon) of 642000 M⁻¹ s⁻¹.

For the molecule fHbp CC5 (natural protein), in [1], the Kd came out at 6.49 nM, the koff was determined as 0.00446 s⁻¹ and the kon is 687000 M⁻¹ s⁻¹.

In [1], fHbp CC2 (natural protein) registered a Kd of 0.425 nM, a koff of 0.000266 s⁻¹ and a kon of 625000 M⁻¹ s⁻¹.

fHbp CC9 (natural protein): in experiment [1], the Kd amounted to 7.66 nM, the koff amounted to 0.00118 s⁻¹ and the kon turned out to be 154000 M⁻¹ s⁻¹.

In [1], fHbp CC8 (natural protein) returned a Kd of 3.58 nM, a koff of 0.002 s⁻¹ and a kon of 558000 M⁻¹ s⁻¹.

In experiment [1], fHbp CC3 (natural protein) showed a Kd of 1.2 nM, a koff of 0.00241 s⁻¹ and a kon of 2.01e+06 M⁻¹ s⁻¹.

B1: mouse mAb 12C1 (antibody, V domains shown)
VH: QVQLQESGPELVKPGASVKISCKASGYSFSDYNMSWVKQSNGKSLEWIGIIDPKYGTINYNQKFKGKATLTVDQASSTAYMQLNSLTSEDSAVYYCVRDYYGSSYFDYWGQGTTLTVSS
VL: DIVLTQSPSSIYASLGERVTLTCKASQDIHNYLNWFQQKPGKSPKTLIYRANRLVDGVPSRFSGGGSGQDYSLTISSLEFEDIGIYYCLQYDEFPPTFGGGTRLEIK
notes: also called mouse 12C1 mAb; source: Expi293, transient transfection, purified (MabSelect SuRe, SEC)
In experiment [3], B1 showed a Kd of 0.037 nM. This lies in the picomolar range.

B2: mAb 12C1 (mouse) (antibody, V domains shown)
VH: QVQLQESGPELVKPGASVKISCKASGYSFSDYNMSWVKQSNGKSLEWIGIIDPKYGTINYNQKFKGKATLTVDQASSTAYMQLNSLTSEDSAVYYCVRDYYGSSYFDYWGQGTTLTVSS
VL: DIVLTQSPSSIYASLGERVTLTCKASQDIHNYLNWFQQKPGKSPKTLIYRANRLVDGVPSRFSGGGSGQDYSLTISSLEFEDIGIYYCLQYDEFPPTFGGGTRLEIK
notes: source: Expi293, purified (MabSelect SuRe, SEC); copies: 2 + 2
Regarding B2, the Kd in experiment [4], in experiment [5], in experiment [6], in [7], in experiment [9] and in experiment [10] was under 0.001 nM in each case. This molecule came in with a Kd in [11] of under 0.001 nM. Besides, the koff in experiment [4] was under 1e-07 s⁻¹; in [5], under 1e-07 s⁻¹; in experiment [6], under 1e-07 s⁻¹; in [7], under 1e-07 s⁻¹; in experiment [8], 2.2e-05 s⁻¹; in experiment [9] it was under 1e-07 s⁻¹. Further, the koff in [10] and in experiment [11] was under 1e-07 s⁻¹ throughout. Further, the kon in experiment [4] was found to be 809000 ± 12500 M⁻¹ s⁻¹; in experiment [5], 599000 ± 21400 M⁻¹ s⁻¹; in [6], 359000 ± 10900 M⁻¹ s⁻¹; in experiment [7], 397000 ± 13200 M⁻¹ s⁻¹; in [8] it was 585000 ± 6100 M⁻¹ s⁻¹; in experiment [9] it was 386000 ± 44100 M⁻¹ s⁻¹. The figures for the on-rate constant (kon) in experiment [10] and in experiment [11] were 101000 ± 20700 M⁻¹ s⁻¹ and 796000 ± 15600 M⁻¹ s⁻¹, respectively.

B3: mouse mAb JAR5 (antibody, V domains shown)
VH: QVQMQQPGAELVKPGASVKLSCKASGYTFISYWMHWVKQRPGRGLEWIGRIAPDTGIIYYNEKFKNKATLTVDTPSSTAYMQLNSLTSEDSAVYYCARYLKYDGSTYRFDYWGQGTTLTVSS
VL: DIVMTQAAPSVPVTPGESVSISCRSSKSLLHSNGNTYLFWFLQRPGQSPQLLIYRMSNLASGVPDRFSGSGSGTSFTLRISRVEAEDVGVYYCMQHLEYPYTFGGGTKLEIK
notes: also called mouse JAR5 mAb; source: Expi293, transient transfection, purified (MabSelect SuRe, SEC)
Molecule B3 registered a Kd in experiment [3] of 0.254 nM.

B4: mAb JAR5 (mouse) (antibody, V domains shown)
VH: QVQMQQPGAELVKPGASVKLSCKASGYTFISYWMHWVKQRPGRGLEWIGRIAPDTGIIYYNEKFKNKATLTVDTPSSTAYMQLNSLTSEDSAVYYCARYLKYDGSTYRFDYWGQGTTLTVSS
VL: DIVMTQAAPSVPVTPGESVSISCRSSKSLLHSNGNTYLFWFLQRPGQSPQLLIYRMSNLASGVPDRFSGSGSGTSFTLRISRVEAEDVGVYYCMQHLEYPYTFGGGTKLEIK
notes: as for B2
Turning to B4, the Kd is 0.211 nM in experiment [4]; 0.418 nM in experiment [5]; 0.0297 nM in [6]; 0.404 nM in experiment [7]; 0.209 nM in [9].

B5: chimeric antibody hJAR5 (antibody, V domains shown)
VH: QVQMQQPGAELVKPGASVKLSCKASGYTFISYWMHWVKQRPGRGLEWIGRIAPDTGIIYYNEKFKNKATLTVDTPSSTAYMQLNSLTSEDSAVYYCARYLKYDGSTYRFDYWGQGTTLTVSS
VL: DIVMTQAAPSVPVTPGESVSISCRSSKSLLHSNGNTYLFWFLQRPGQSPQLLIYRMSNLASGVPDRFSGSGSGTSFTLRISRVEAEDVGVYYCMQHLEYPYTFGGGTKLEIK
B5 displayed a Kd in [12] of 0.631 nM.

B6: mAb 1A12 (human) (antibody, V domains shown)
VH: EVQLVQSGAELKKPGESLKISCKASGYTFTNYWVVWVRQMPGEGLEWMGSIHPRDSDARYSLSFEGRVTFSVDKSTTTAYLQWSSLKVSDSAIYYCARLSQVSGWSPWVGPWGQGTLVTVSS
VL: DIVMTQSPSSLSASVGDRVTITCRASQSISVSLNWYQQKPGKAPKVLIYAASRLQSGIPSRFSGSGSGSHFTLTISSLQPEDFATYYCQETYSDLMYTFGQGTKVEIK
notes: as for B2
Consider B6, for which the figures for the Kd in [11], in experiment [13] and in [14] were under 0.001 nM, 65.9 nM and 20.4 nM, respectively.
